Experimental data: patent US20180246080A1, “METHODS USING AXL AS A BIOMARKER OF EPITHELIAL-TO-MESENCHYMAL TRANSITION” (BERGEN TEKNOLOGIOVERFORING AS, priority 2009, published 2018)

What was measured:
MDA-MB-231/GFP-Luc cells = assay: Tissue engineered tricellular tumor implants (MDA-MB-231, EC, SMC) in scaffolds; assay type: in vivo, NOD-SCID mice
Description: 1×10^6 MDA-MB 231 cells which express GFP-Luc biomarker and different RNAs interference that regulate Axl expression, were suspended in a 1:1 mixture of F-12 Kaighn's (Invitrogen) :Matrigel (BD Biosciences) and seeded in 6×6 mm Poly-lactic acid (PLLA) scaffolds.
Females NOD/SCID/B2mnull were anesthetized by exposure to 1-2% isoflurane (Isoba vet.-Schering-Plough A/S) during the implantation procedure and on subsequent imaging days. Two scaffolds were implanted subcutaneously (s.c) in each mouse according to Nor et al. Lab Invest.; 81 (4) 453; 2001 Scaffolds with cells that express Axl were implanted on the left side of each mouse while on the right side scaffolds with cells in which Axl was knockdown. After the surgical procedure, anesthetized mice were placed in Imaging System and imaged for both left and right sides 10-15 min after intraperitoneal injection of 150 mg/kg D-luciferin (Biosynth). Tumor development was monitored in vivo once a week by imaging for 4 weeks.
For tricellular implant MDA-MB-231 cells infected with shRNA vectors and GFP-Luc were mixed with Human dermal microvascular endothelial cells (HMVEC), and pulmonary artery smooth muscle cells (PASMC) in ratio of 1:2:2. Tumor growth was monitored weekly in vivo by imaging for 4 consecutive weeks.
To ascertain whether Axl influences the ability of breast cancer cells to attract and co-opt blood vessels, we developed a tri-cellular implant approach comprising MB-MDA-231 cells seeded together with primary human microvascular endothelial (HuMVEC) and vascular smooth muscle cells (vSMC) to create tumor vasculature. Implants of human EC-vSMC cells readily form perfused intrascaffold human microvasculature in NOD-SCID mice within a two-week period (Hegen et al., in preparation). […] The engineered human tumor vasculature is evenly distributed and perfused with intralumenal red blood cells. In contrast, Axl knockdown, blocked tumor formation, without affecting development of a perfused human microvasculature.

MDA-MB-231-D3H2LN cells = assay: Mammary fat pad spontaneous metastasis model, bioluminescence imaging; assay type: in vivo, NOD-SCID mice
Experimental: BLI was performed using a eXplore Optix (GE Healtcare) camera mounted in a specimen box. Imaging and quantification of signals was done using eXplore Optix software. For in vivo imaging, animals received via intraperitoneal injection (i.p) the substrate D-luciferin (Biosynth), 150 mg/kg in PBS (Phosphate Buffered Saline) and anesthetized with isoflurane. Mice were placed into warmed stage inside of camera box with continuous exposure to 1-2% isoflurane and imaged for different views depending on the tumor model. Region of interest were identified and were quantified as total photon/sec-1 using eXplore Optix software (GE Explore Optix). In vivo background bioluminescence was in the range of 2-3×10 photon counts. […]
Subline of human MDA-MB-231 cells (called MDA-MB 231 DH3L2N—Xenogen) which express GFP-Luc biomarker and different RNAs interference that regulate Axl expression were injected into mammary pad of mice. […] Tumor growth and metastasis spread was monitored every second week by bioluminescent imaging for up to 9 weeks. […]
In order to evaluate the requirement of Axl for breast cancer metastasis, we orthotopically injected MDA-MB-231-D3H2LN, a rapidly growing and highly metastatic in vivo MDA-231 isolate, into the mammary fat pad. Using whole body bioluminescent imaging we temporally monitored spontaneous metastasis development over a 9-week period. […]

mouse Axl = assay: Flow cytometry of mouse Axl surface expression in 4T1-GFP-Luc cells; assay type: cell-based; settings: 4T1 cells, retroviral shRNA expression
Experimental: (§1) The MDA-MB-231 cells were trypsinated using standard procedures and washed in PBS-0.2% BSA before staining with anti-Axl (#MAB154, R&D Systems) at a final concentration of […] in PBS-0.2% BSA for 40 minutes at room temperature. Cells were washed twice in PBS-0.2% BSA) and incubated with secondary antibody (Goat anti-mouse APC (Allophyocyanin, crosslinked, Molecular Probes) at a final concentration of 0.2 mg/ml for 30 minutes at room temperature in the dark. Cells were washed twice with PBS-2% BSA and resuspended in […] PBS-0.2% BSA before analysis on a FacsCalibur Flow Cytometer (BD Biosciences). Data analyses were carried out using the FlowJo software (Tree Star, Inc., Ashland, Oreg., USA).
In order to validate our results in a different metastatic model we transduced the highly metastatic mouse breast carcinoma 4T1 cell line with the CSI-construct and selected for GFPluciferase expression by FACS (4T1-GFP-Luc). […] A mismatched human Axl-targeting shRNA (shAxl279) had no effect on mouse Axl expression.

Axl = assay: FACS analysis of Axl expression in epi-allelic MDA-MB-231 cell series; assay type: cell-based, human; settings: MDA-MB-231/GFP-Luc cells
Description: All shRNAs were expressed from a modified human U6 promoter in the LTR of the retroviral vectors RRI-Red/L087 (Genbank: EU424173) used to transform MDA-MB-231 cells via retroviral infection. RRI-Red also expresses Puro2AmRed1 resulting in puromycin resistance and red fluorescence in successfully transformed cells. All Axl cDNA nucleotides are numbered as in Genbank: BC032229.
as §1, with “Data analyses were carried out using the FlowJo software (Tree Star, Inc., Ashland, Oreg., USA).” left out
The strong correlation of Axl expression in early breast carcinomas with poor survival indicates an important role for Axl in overall disease pathogenesis. As breast cancer-related mortality invariably results from complications of metastatic disease, we assessed whether Axl expression was required for malignant breast carcinoma cell invasiveness. […]

| Molecule | Intrascaffold vessel diameter (MDA-MB-231/GFP-Luc cells; excised tumors, 28 days) | Microvascular density (MDA-MB-231/GFP-Luc cells; excised tumors, 28 days) | Tissue engineered tumor growth (MDA-MB-231/GFP-Luc cells; tricellular implants, in vivo imaging) | Overall survival (MDA-MB-231-D3H2LN cells; orthotopically injected MDA-MB-231-D3H2LN/GFP-Luc cells, P=0.013 log-rank test vs control) | Spontaneous metastasis (MDA-MB-231-D3H2LN cells; whole body bioluminescent imaging over 9 weeks) | mouse Axl surface levels (mouse Axl) | Axl knockdown efficacy (Axl-targeting shRNA) (Axl) |
| --- | --- | --- | --- | --- | --- | --- | --- |
| shAxl2: human Axl-targeting shRNA, SEQ ID NO: 1, expressed from retroviral vector (nucleic acid, listed as Homo sapiens) GACATCCTCTTTCTCCTGCGAAGCCCATCTGGTCATGGGCTTCGCAGGAGAAAGAGGATGTC | unaffected | slightly enhanced | inhibited | significantly increased | no metastases were detected |  |  |
| shAxl279: ineffective human Axl-targeting shRNA, SEQ ID NO: 3, used as control (nucleic acid, listed as Homo sapiens) GCTTCAGGCGATTTCCCCGGCGTTGGATCCCTGGTCGGATCCAACGCCGGGGAAATCGCCTGAAGC |  |  |  |  |  | had no effect | ineffective |
